In patent publication US20100159032A1:

Key:
[1] = biological target: Gln^3-Aβ(3-21)a, Gln^3-amyloid β-peptide(3-21)a (Artificial Sequence)
[2] = biological target: Gln^3-Aβ(3-40), Gln^3-amyloid β-peptide(3-40) (Artificial Sequence)
[3] = biological target: Glucagon(3-29) (Homo sapiens (Human)) (UniProt P01275)
[4] = biological target: Gln^3-Aβ(3-11)a, Gln^3-amyloid β-peptide(3-11)a (Artificial Sequence)

kcat/KM [1]: 383000 M⁻¹ s⁻¹
kcat/KM [2]: 449000 M⁻¹ s⁻¹
kcat/KM [3]: 526000 M⁻¹ s⁻¹
kcat/KM [4]: 267000 M⁻¹ s⁻¹
Substance: recombinant human QC (glutaminyl cyclase) (from UniProt Q16769) (enzyme)
